Results on 2 substances are retold here after paper PMC12139977.

Assay [1] addresses Syntaxin-1A (rat (endogenous in INS1 (832/13))) (UniProt P32851). The assay can be described thus: co-IP.
Assay [2] has the same target. The assay can be described thus: proximity ligation.

Chain of UniProt P32851 (P32851 whole entry): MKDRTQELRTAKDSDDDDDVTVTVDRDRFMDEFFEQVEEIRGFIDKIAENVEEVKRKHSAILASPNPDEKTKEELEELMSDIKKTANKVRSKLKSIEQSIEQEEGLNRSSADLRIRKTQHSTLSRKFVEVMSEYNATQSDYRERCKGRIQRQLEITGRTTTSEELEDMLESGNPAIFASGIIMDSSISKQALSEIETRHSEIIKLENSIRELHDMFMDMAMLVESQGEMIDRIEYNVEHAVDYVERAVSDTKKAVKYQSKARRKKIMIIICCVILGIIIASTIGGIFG

As for “stabilized V5-tagged Tomosyn-2 (natural protein)”, in assay [1], the fold increase of Tomosyn-2 bound to Stx1A against control cells came out at 3 fold.

Tomosyn-2 (natural protein) returned a fold increase of PLA signal over the control in assay [2] of 8 fold.
